Results taken from patent US20210292423A1 (published 2021).
Residue numbers refer to the chain shown, from its start. One block for each binder: values may come before it.

Experiments:
[1] = target: T1, human CD3ε/δ-Fc fusion protein (soluble recombinant CD3ε/δ complex) (human, UniProt P04234 22-105); experiment: SPR single point, hybridoma supernatant
T1 construct: also called huCD3ε/δ; huCD3; not shown: hinge, CH2, CH3 of human IgG with tag
Procedure: Rats with positive sera were scarified and B cells were fused with mouse myeloma cells. The resulting hybrndomas were screened on HEK293 cells transfected with human or cynomoligus CD3ε and CD3δ expression plasmids, on Jurkat E6.1 (CD3+) and Jurkat T3.5 (CD3-) by flow cytometry. Supernatant of Hybridoma clones was used to assess by surface plasmon resonance single point kinetic against human and Macaca fascicularis CD3ε/δ complex by fixing the analyte at 25 nM (data presented in table 3).

[2] = target: T1, human CD3ε/δ-Fc fusion protein (soluble …); experiment: SPR Biacore, Fab
Procedure: (§1) Binding affinities of anti-CD3 binding Fabs or CODV-Fabs were measured by surface plasmon resonance (SPR) using a Biacore3000 instrument (GE Healthcare). Assay buffer was HBS-EP (BR-1001-88, GE Healthcare). Capture of CD3ε/δ-Fc fusion proteins was achieved using the human antibody capture kit (GE Healthcare). […] The CD3εδ-Fc fusions proteins were captured at 10 μl/min to approx. 70 RU to yield Rmax values of 30 RU. Binding kinetics with the anti-CD3 Fabs or CODV-Fabs was measured at 30 μl/min for 240 sec. and 600 sec. for association and dissociation phase, respectively. Twofold dilutions of Fabs from 3 to 400 nM in assay buffer were used. All Fab concentrations were run in duplicate together with duplicate buffer blanks for double referencing. Regeneration of the capture surface was performed with a 1 min injection of 3M MgCl2 solution at 30 μl/min. For data analysis the BIAevaluation software v.4.1 (GE Healthcare) was used. Data were fit globally using a 1:1 Langmuir model with mass transfer.

[3] = target: T1, human CD3ε/δ-Fc fusion protein (soluble …); experiment: SPR Biacore, CODV-Fab on recombinant CD3ε/δ
Procedure: as §1

T1 sequence (chain, as listed by the source mutant, chain 1 of 2): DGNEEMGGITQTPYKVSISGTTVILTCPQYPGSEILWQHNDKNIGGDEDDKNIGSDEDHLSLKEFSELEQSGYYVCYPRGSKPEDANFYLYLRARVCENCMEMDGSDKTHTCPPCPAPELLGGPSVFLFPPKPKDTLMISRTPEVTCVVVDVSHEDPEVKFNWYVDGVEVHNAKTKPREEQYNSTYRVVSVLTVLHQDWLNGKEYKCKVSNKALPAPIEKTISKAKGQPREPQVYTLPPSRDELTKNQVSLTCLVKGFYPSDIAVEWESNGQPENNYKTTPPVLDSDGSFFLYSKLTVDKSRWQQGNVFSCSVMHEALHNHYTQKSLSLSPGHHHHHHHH
T1 sequence (P04234 22-105, stated change not applied, chain 2 of 2): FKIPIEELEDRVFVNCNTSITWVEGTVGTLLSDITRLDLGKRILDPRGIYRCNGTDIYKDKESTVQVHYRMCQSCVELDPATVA

B1: 8H2-F3 anti-CD3 antibody (hybridoma supernatant) (antibody, V domains shown)
VH: QIQLVQSGPELKKPGESVKISCKASGYTFTDFAMNWVKQAPGNGLKWMGWINTQTGKPTYADGFKQRFVFSLETSASTIYLQINNLNIEDTATYFCTRGALASVGQGVMVTVSS
VL: DVVMTQTPVSLSVAIGQPASISCKSSQSLVGTSGKTYLNWLLQRPGQSPKRLIYLVSKLDSGIPDRFSGSGSETDFTLKISRVETDDLGVYYCLQGSHFPLTFGSGTKLEIK
notes: rat IgG in hybridoma supernatant
RU at 25 nM [1]: 32.5 RU

B2: 6C9-C9 anti-CD3 antibody (hybridoma supernatant) (antibody, V domains shown)
VH: AVQLVESGGGLVRPKESLKISCAASGFTFRNAAMYWVRQAPGKGLEWVARIRTQPNNYAKYYADSVKDRFTISRDDSKSMVYLQMDNLKTEDTAMYYCTGLVVTAMDAWGQGTSVTVSS
VL: DIQMTQSPSFLSASVGDRVTINCKASQNINKYLNWYQQKLGEAPKLLIYVTNNLQTGIPSRFSGSGSGTDYTLTISSLQPEDVATYFCLQHRSMYTFGTGTKLELK
notes: as for B1
RU at 25 nM [1]: 26 RU

B3: humanized 4B4 Fab 4B4_10 (VL1_CM2, VH6_BM2) (Fab, V domains shown)
VH: QVQLVESGGRVVQPGRSLRLTCAASGFTFSNAWMHWVRQAPGKQLEWVAQIKARSNNYATYYAESVKGRFTISRDDSKSTIYLQMNSLRAEDTAVYYCRGTYYASKPFDYWGQGTTVTVSS
VL: DVVMTQSPLSLSVTLGQPVSISCRSSQSLVHDNGNTYLSWSLQRPGQSPRVLIYKVSNRFSGVPDRFSGSGSGTDFTLKISRVEAEDVGVYYCGQGTQYPFTFGSGTKLEIK
Kd [2]: 9.19 nM
koff [2]: 0.00399 s⁻¹
kon [2]: 434000 M⁻¹ s⁻¹

B6: humanized 4B4 Fab 4B4_6 (VL1a, VH1A) (Fab, V domains shown)
VH: QVQLVETGGGLVKPGQSLKLTCATSGFTFSNAWMHWVRQSPEKGLEWVAQIKARSNNYATYYAESVKGRFTISRDDSKSTIYLQMNSLTPEDTAIYYCRGTYYASKPFDYWGQGVMVTVSS
VL: DVVMTQTPVSLSVSVGGRVSISCRSSQSLVHDNGNTYLSWSLQKPGKSPKVLIYKVSNRFSGVSSRFTGSGSGTDFTLKISSVQPDDLGVYYCGQGTQYPFTFGSGTKLEIK
notes: expressed as Fab-fragment
Kd [2]: 1.24 nM
koff [2]: 0.00185 s⁻¹
kon [2]: 1.5e+06 M⁻¹ s⁻¹

B10: CODV-Fab 7G3 × 20G6 with humanized 20G6 VL1D_VH1B (bispecific antibody)
light: DIVMTQTPLSLSVTPGQPASISCKSSQSLVHNNGNTYLSWYLQKPGQSPQSLIYKVSNRFSGVPDRFSGSGSGTDFTLKISRVEAEDVGVYYCGQGTQYPFTFGSGTKVEIKGQPKAAPDFVMTQSPSSLTVTAGEKVTMSCKSSQSLLNSGNQKNYLTWYLQKPGQPPKLLIYWASTRESGVPDRFTGSGSGTDFTLTISSVQAEDLAVYYCQNDYSYPYTFGGGTKLEIKTKGPSRTVAAPSVFIFPPSDEQLKSGTASVVCLLNNFYPREAKVQWKVDNALQSGNSQESVTEQDSKDSTYSLSSTLTLSKADYEKHKVYACEVTHQGLSSPVTKSFNRGEC
heavy: EVQLQQSGPELVKPGASVKMSCKASGYTFTDYYMKWVKQSHGKSLEWIGDIIPSNGATFYNQKFKGKATLTVDRSSSTAYMHLNSLTSEDSAVYYCTRSHLLRASWFAYWGQGTLVTVSASQVQLVESGGGVVQPGRSLRLSCAASGFTFTKAWMHWVRQAPGKQLEWVAQIKDKSNSYATYYADSVKGRFTISRDNSKNTLYLQMNSLRAEDTAVYYCRGVYYALSPFDYWGQGTLVTVSSRTASTKGPSVFPLAPSSKSTSGGTAALGCLVKDYFPEPVTVSWNSGALTSGVHTFPAVLQSSGLYSLSSVVTVPSSSLGTQTYICNVNHKPSNTKVDKKVEPKSCDKTHTHHHHHH
Kd [3]: 58.7 nM
koff [3]: 0.00109 s⁻¹
kon [3]: 18600 M⁻¹ s⁻¹

B14: CODV-Fab 7G3 × 20G6 with humanized 20G6 VL1A_VH1A (bispecific antibody)
light: B10 light with S51L, S105Q, V109L
heavy: B10 heavy with Q165G
Kd [3]: 152 nM
koff [3]: 0.00434 s⁻¹
kon [3]: 28600 M⁻¹ s⁻¹

B16: 11F9-F8 anti-CD3 antibody (hybridoma supernatant) (antibody, V domains shown)
VH: EVQLVETGGTLVQPGKSLKLTCATSGFTFSNAWMHWVRQSPEKQLEWVAQIKAKSNNYATYYAESVKGRFTISRDDSKTSVYLQLNSLREEDTAIYYCRGTQYGYNPFDYWGQGVMVTVSS
VL: DVVLTQTPVSLSVSLGGQVSISCRSSQSLVHNNGNTYLSWSLQKPGQSPQVLIYKVSNRFSGISNRFSGSGSGTDFTLKISRVEPDDLGVYYCGQGAHYPFTFGSGTKLEIK
notes: as for B1
RU at 25 nM [1]: 11.5 RU

B17: 11D7-C3 anti-CD3 antibody (hybridoma supernatant) (antibody, V domains shown)
VH: EVQFVETGGSLVQPGKSLKLTCATSGFTFSNAWMHWVRQSPEKQLEWVAQIKAKSNNYATYYAESVKGRFTISRDDSKSSVYLQMNSLKEEDTATYYCRGLYYGLSPSDYWGQGVMVTVSS
VL: B16 VL with L4M, S41Y, V51L, N65D, A97T
notes: as for B1
RU at 25 nM [1]: 17 RU

B19: 4E7-C9 anti-CD3 antibody (hybridoma supernatant) (antibody, V domains shown)
VH: EVQVVETGGSLVQPGKSLKLTCATSGFTFSNAWMHWVRQSPEKQLEWVAQIKDKSNNYATYYAESLKGRFTISRDDPKRSIYLQMNSLREEDTAIYYCRYVHYGIGYAMDAWGQGTSVTVSS
VL: B16 VL with L4M, V30E, S41Y, V51P, N65D, A97T, H98Q, S105P, I111L
notes: as for B1
RU at 25 nM [1]: 2.5 RU

B20: 4B4-D7 anti-CD3 antibody (hybridoma supernatant) (antibody, V domains shown)
VH: B6 VH with Q1E, G10R, K13Q, Q16R, G44Q, T89K, P90E
VL: B16 VL with L4M, N32D, K44R, I63T, N65D, S68T, A97T, H98Q
notes: as for B1
RU at 25 nM [1]: 11 RU

B22: 13C1-F6 anti-CD3 antibody (hybridoma supernatant) (antibody, V domains shown)
VH: B16 VH
VL: DVVMTQSPVSLSVSLGGQVSISCRSSQSLVHNNGNTYLSWYLQRSGQSPQLLIYKVSNRLSGISDRFSGSGSGTDFTLKISRIEPDDLGVYYCGQGTQYPFTFGSGTRLEIK
notes: as for B1
RU at 25 nM [1]: 17 RU

The next lines start with the values.

Kd [2]: 33.5 nM
koff [2]: 0.00171 s⁻¹
kon [2]: 50900 M⁻¹ s⁻¹
B4: humanized 4B4 Fab 4B4_20 (VL2F, VH6C) (Fab, V domains shown)
VH: B3 VH with R10G, T21S, E64D, I81L, T116L
VL: DIVMTQTPLSLSVTPGQPASISCKSSQSLVHDNANTYLSWYLQKPGQSPQSLIYKVSNRFSGVPDRFSGSGSGTDFTLKISRVEAEDVGVYYCGQGTQYPFTFGSGTKVEIK
notes: expressed as Fab-fragment

Kd [2]: 18.2 nM
koff [2]: 0.00423 s⁻¹
kon [2]: 233000 M⁻¹ s⁻¹
B5: humanized 4B4 Fab 4B4_5 (VL2C, VH6D) (Fab, V domains shown)
VH: B3 VH with R10G, T21S, A24T, E64D, T116L
VL: B4 VL with A34G, Y41S, S51V, V109L
notes: expressed as Fab-fragment

Kd [2]: 2.77 nM
koff [2]: 0.00174 s⁻¹
kon [2]: 628000 M⁻¹ s⁻¹
B7: humanized 4B4 Fab 4B4_1 (VL1a, VH1B) (Fab, V domains shown)
VH: B6 VH with E64V
VL: B6 VL
notes: expressed as Fab-fragment

Kd [2]: 7.48 nM
koff [2]: 0.00214 s⁻¹
kon [2]: 286000 M⁻¹ s⁻¹
B8: humanized 4B4 Fab 4B4_2 (VL1b, VH1B) (Fab, V domains shown)
VH: B6 VH with E64V
VL: B6 VL with G34A
notes: expressed as Fab-fragment

Kd [2]: 8.1 nM
koff [2]: 0.00248 s⁻¹
kon [2]: 306000 M⁻¹ s⁻¹
B9: humanized 4B4 Fab 4B4_7 (VL1b, VH1A) (Fab, V domains shown)
VH: B6 VH
VL: B6 VL with G34A
notes: expressed as Fab-fragment

Kd [3]: 31 nM
koff [3]: 0.000746 s⁻¹
kon [3]: 24000 M⁻¹ s⁻¹
B11: CODV-Fab 7G3 × 20G6 with humanized 20G6 VL1D_VH1D (bispecific antibody)
light: B10 light
heavy: B10 heavy with N197D
notes: same V domains as hz20G6x7G3 but the other order

Kd [3]: 138 nM
koff [3]: 0.00414 s⁻¹
kon [3]: 29900 M⁻¹ s⁻¹
B12: CODV-Fab 7G3 × 20G6 with humanized 20G6 VL1B_VH1A (bispecific antibody)
light: B10 light with S51L, S105G
heavy: B10 heavy with Q165G

Kd [3]: 44 nM
koff [3]: 0.00101 s⁻¹
kon [3]: 23000 M⁻¹ s⁻¹
B13: CODV-Fab 7G3 × 20G6 with humanized 20G6 VL1C_VH1D (bispecific antibody)
light: B10 light with G34A
heavy: B10 heavy with N197D

Kd [3]: 32.1 nM
koff [3]: 0.000713 s⁻¹
kon [3]: 22200 M⁻¹ s⁻¹
B15: CODV-Fab 7G3 × 20G6 with humanized 20G6 VL1D_VH1C (bispecific antibody)
light: B10 light
heavy: B10 heavy with D185A, N197D

Kd [2]: 13.4 nM
koff [2]: 0.00291 s⁻¹
kon [2]: 218000 M⁻¹ s⁻¹
B18: humanized 4B4 Fab 4B4_9 (VL2B, VH2A) (Fab, V domains shown)
VH: B6 VH with Q1E, K13Q, Q16G, T89R, P90A
VL: B6 VL with V15P, R18P, G34A, K47Q, K50Q, S65D, S82R, Q84E
notes: expressed as Fab-fragment

Kd [2]: 8.91 nM
koff [2]: 0.00276 s⁻¹
kon [2]: 310000 M⁻¹ s⁻¹
B21: humanized 4B4 Fab 4B4_17 (VL2A, VH2B) (Fab, V domains shown)
VH: B6 VH with Q1E, K13Q, Q16G, E64D, T89R, P90A
VL: B6 VL with V15P, R18P, K47Q, K50Q, S65D, S82R, Q84E
notes: expressed as Fab-fragment
